Results from the Human Domainome abundance scans (Beltran et al. 2025).
± gives the uncertainty stated by the source.

B1: CD2-associated protein, residues 109 to 169; numbered along this chain, Q9Y5K6 (parent)
chain: KKRQCKVLFEYIPQNEDELELKVGDIIDINEEVEEGWWSGTLNNKLGLFPSNFVKELEVTD
B2: Dynamin-binding protein, residues 146 to 206; numbered along this chain, Q6XZF7 (parent)
chain: SMGQARALMGLSAQLDEELDFREGDVITIIGVPEPGWFEGELEGRRGIFPEGFVELLGPLR

Variants of: B1
Assay: abundance fitness (aPCA) (normalised: wild type 0, dead -1); higher = more abundant; growth selection in yeast, the domain comes from the species named
Conditions: Homo sapiens

| Variant | abundance fitness |
| --- | --- |
| KKRQCKVLFEYIPQNEDELELKVGDIIDINEEVEEGWWSGTLNNKIGLFPSNFVKELEVTD | 0.169 ± 0.049 |
| KKRQCKVLFEYIPQNEDELELKVGDIIDINEEVEEGWWSGTLNNKHGLFPSNFVKELEVTD | 0.035 ± 0.051 |
| KKRQCKVLFEYIPQNEDELELKVGDIIDINEEVEEGWWSGTDNNKLGLFPSNFVKELEVTD | -0.241 ± 0.3 |
| KKRQCKVLFEYIPQNEDELELKVGDIIDINEEVEEGWWSGTLNNKLGLFPSNFVKELEATD | 0.001 ± 0.2 |
| KKRQCKVLFEYIPQNETELELKVGDIIDINEEVEEGWWSGTLNNKLGLFPSNFVKELEVTD | -0.298 ± 0.46 |
| KKRQCKVWFEYIPQNEDELELKVGDIIDINEEVEEGWWSGTLNNKLGLFPSNFVKELEVTD | -0.49 ± 0.24 |
| KKRQCKVLFEYIPQNEDELELKVGDIIDINEEVEEGWWSGRLNNKLGLFPSNFVKELEVTD | -0.171 ± 0.12 |
| KKRQCKVLFEYIPQNEDELELKVGDIIDINEEVEEGKWSGTLNNKLGLFPSNFVKELEVTD | -0.681 ± 0.48 |
| KKRQCKVLFEYIPQNEDELELKVGDIIDINEEVEEGAWSGTLNNKLGLFPSNFVKELEVTD | -0.855 ± 0.32 |
| KKRQCKVLFEYIPQNEDELELKVGDIIDINEEVEEGWWLGTLNNKLGLFPSNFVKELEVTD | 0.057 ± 0.061 |
| KKRQCKVLFEYIPQNEDELELKVGDIIDINEEVEEGWWMGTLNNKLGLFPSNFVKELEVTD | -0.126 ± 0.093 |
| KKRQCKVLFEYIPQNEDELELKVGDIIDINEEVEEGWWYGTLNNKLGLFPSNFVKELEVTD | -0.257 ± 0.12 |
| KKRQCKVLFEYIPQNEDELELKVGDIIDINEEVEEGWWSGTLNNKLGLFPSNFVKELEVTC | -0.561 ± 0.23 |
| KKRQCKVLFEYIPQNEDELELKVGDIIDINEEVEEGWWSGTLNYKLGLFPSNFVKELEVTD | -0.483 ± 0.33 |
| KKRQCKVLFEYIPQNEDELELKVGDIIDINEEVEEGWWSGTLNAKLGLFPSNFVKELEVTD | -0.048 ± 0.14 |
| KKRQCKVLFEYIPQNEDELELKVGDIIDVNEEVEEGWWSGTLNNKLGLFPSNFVKELEVTD | 0.085 ± 0.35 |
| KKRQCKVLFEYIPQNEDMLELKVGDIIDINEEVEEGWWSGTLNNKLGLFPSNFVKELEVTD | -0.503 ± 0.2 |

Variants of: B2
Assay: as above
Conditions: Homo sapiens

| Variant | abundance fitness |
| --- | --- |
| SMGQARALMGLSAQLDEELDFREGDEITIIGVPEPGWFEGELEGRRGIFPEGFVELLGPLR | -0.27 ± 0.13 |
| SMGQARALMGLSAQLDEELDFREGDCITIIGVPEPGWFEGELEGRRGIFPEGFVELLGPLR | -0.45 ± 0.047 |
| SMGQARALMGLSAQLDEELDFREGDVITIIGNPEPGWFEGELEGRRGIFPEGFVELLGPLR | -0.232 ± 0.17 |
| SMGQARALMGLSAQLDEELDFREGDVITIIGVPEPGWFEGELEGRRGIFQEGFVELLGPLR | -0.314 ± 0.13 |
| SMGQARALMGLSAQFDEELDFREGDVITIIGVPEPGWFEGELEGRRGIFPEGFVELLGPLR | 0.037 ± 0.052 |
| SMGQARATMGLSAQLDEELDFREGDVITIIGVPEPGWFEGELEGRRGIFPEGFVELLGPLR | 0.014 ± 0.057 |
| SMGQARALMGLSAQLDEELDFREGDVITIIGVPEPGWFEGELEGRCGIFPEGFVELLGPLR | -0.303 ± 0.059 |
| SMGQARALMGLSAQLDEELDFREGDVITIIGVPEPGWFEGELEGRRGIFPEGEVELLGPLR | -0.486 ± 0.2 |
| SMGQARALMGLSAQLDEELDFREGDVITIIGVPEPGWFEGELEGRRGIFPEIFVELLGPLR | 0.04 ± 0.16 |
| SMGQARALMGLSAQLDEELDFREGDVITIIGVSEPGWFEGELEGRRGIFPEGFVELLGPLR | -0.65 ± 0.1 |
| SMGQARALMGLSAQLDEELDFREGDVITIIGVKEPGWFEGELEGRRGIFPEGFVELLGPLR | -0.215 ± 0.13 |
| SMGQARALMGLSAQLDEELDFREGDVITIIGVHEPGWFEGELEGRRGIFPEGFVELLGPLR | -0.27 ± 0.11 |
| SMGQARALMGLSAQLDEELDFREGDVITIIGVPEPGWFEGELEGRRVIFPEGFVELLGPLR | -0.719 ± 0.069 |
| IMGQARALMGLSAQLDEELDFREGDVITIIGVPEPGWFEGELEGRRGIFPEGFVELLGPLR | 0.103 ± 0.084 |
| SMGQARALMGLSAQLDEELDFREGDVKTIIGVPEPGWFEGELEGRRGIFPEGFVELLGPLR | -0.73 ± 0.13 |
| SMGQARALMGLMAQLDEELDFREGDVITIIGVPEPGWFEGELEGRRGIFPEGFVELLGPLR | -0.083 ± 0.23 |
| SMGQARALMGLSAQLDEELDFREGDVITIAGVPEPGWFEGELEGRRGIFPEGFVELLGPLR | -0.374 ± 0.17 |
| SMGQARALMGLSAQLDEELDFREGDVITIIGVPEPGWFEGELEGRRGIFPEGFKELLGPLR | -0.671 ± 0.25 |
| SMGQARALMGLSAQLDEELDFREGDVITIIGVPEPGWFEGELEHRRGIFPEGFVELLGPLR | -0.665 ± 0.1 |
| SMGQARALMGLSAQLDEELDFREGDVITIIGVPEPGWFEGELEGRRGIFPEGFVELIGPLR | -0.176 ± 0.045 |
| SMGQARALMGLSAQLDEELDFREGDVITIIGVPEPGWFEGELEGRRGIFPEGFVELTGPLR | -0.437 ± 0.055 |
| SMGQARALMGLSAQLDEELDFREGDVITIIGVPEPGWFEGELEGRRGIFPEGFVELYGPLR | -0.578 ± 0.061 |
| SMGQARALMGLSAVLDEELDFREGDVITIIGVPEPGWFEGELEGRRGIFPEGFVELLGPLR | -0.175 ± 0.082 |
| SMGQARALMGLSAYLDEELDFREGDVITIIGVPEPGWFEGELEGRRGIFPEGFVELLGPLR | -0.537 ± 0.16 |
| SMGQARALMGLSADLDEELDFREGDVITIIGVPEPGWFEGELEGRRGIFPEGFVELLGPLR | -0.145 ± 0.058 |
| SMGQARALMGLSAQLDCELDFREGDVITIIGVPEPGWFEGELEGRRGIFPEGFVELLGPLR | 0.07 ± 0.042 |
| SMGQARALMGLSAQLDEELDFCEGDVITIIGVPEPGWFEGELEGRRGIFPEGFVELLGPLR | 0.081 ± 0.11 |
